Among the data in patent publication US20230226096A1 (Orna Therapeutics, Inc., priority 2020, published 2023) are Expression values, retold here.

The data set deals with HEK293 cells. The format is cell-based, human. Particulars: luminescence from secreted Gluc in supernatant 24 hours after transfection of HEK293 cells; circular RNA encoding Gluc with the named IRES (UTR truncated to 675 nt).

B1: Rodent hepatovirus (nucleic acid, listed as Hepatovirus sp.)
DNA: TTCAAAGAGGGGTCCGGGATTTTCCTGGTCCCCCTCTTTGGGCACCCTTGGCTCGGGGGTGTGAATACCGTGCTCGCGTTTGCCGTGCGTTAACGGCTTCATTTATGTTTGTTTGTCTGTTTTATTATGTTGGTTTGTCTGTTTGTTATGTTGGTATTGTTCGTGTTTAATGTTATGACCACATTACACTCCAGCCAATGAAGAACAGATGGTGCGGTTATTGCTGGCGGAATTCCTAACGTCCTGGATCCGTTGGTACGCATCACAAAACAATTTGCAGAGAGAGTGGTGAAACGGCTTGGGAATCCCTGAGTACAGGGAAATCACACTGATAGCTCATCTTGGCTGTTTTCAGTCATGGACCTTATGCAGTGTAATTTGGGTGTACCCCCCATAGCTTAGGAGGAATGTTCTGTCTTGGCACTAGAGTGGGACGCTGATGCCTCCGTGTCTAGGATGGTCTAAGGGACAGAATGGGGTGCCTCTGATGCCATACTACCTGATAGGGTGCTCTCACGGCCTCTGCATCTTAGTGAGAAGTTCAATTTT
On to B1, for which the Expression was determined as 1.39E+05.

B2: Pestivirus strain Aydin (nucleic acid, listed as Pestivirus sp.)
DNA: GTATACGAGATTAGCTCATACTCGTGTACAAATTGGACGTAGCAAATTTAAAAATTCGGATAGGGTCCCCATCCAGCGACGGCCGAACGGGGTTAACCATACCTCTAGTAGGACTAGCAGACGGATGGACTAGCCACAGTGGTGAGCTCCCTGGGAGGTCTAAGTTCTGAGTACAGAACAGTCGTCAGTAGTTCAACGCTGGTAAACCCCAGCCTTGAGATGCTACGTGGACGAGGGCATGCCCAAGACACACCTTAACCTGGACGGGGGTCGTCCAGGTGAAAGTACCCATCTTTGGGTGCTGGGAGTACAGCCTGATAGGGCGCTGCAGAGGCCCACTGACAGGCTAGTATAAAAATCTCTGCTGTACATGGAAC
In the case of B2, the Expression amounted to 3.11E+06.

B3: Ludopivirus (nucleic acid, listed as Ludopivirus sp.)
DNA: TAGACCCCCACCTAGCCCTTTTCCCCGTCAGTGGGGGGCTTACTCACTGGGCATCTGTTAATCTGGCCTAACTAGATTGACACCACTCCCTTGGAACGTAACTCCACGCTAACTCACTGGCTCTACGCACAGACACACGGTCTTTCTGCTATCCCCGGGGAAGATACCAGATGGCGACCGGCTGTCCCAGCGGCCTAGTAGCTACTCGGGTTGAGTACCCACCACGGTTTTGACGCCTGCTAAAATTCAAGAGACAGAGGTAGGGGTGCTTAGTGTGTGGGGGAAGTTCCCACAAGCGAGGCAAAGCATTGCTCCCTCGCGTCACCGGGTGCAAGGTAAATTGGCTGGACTTCCGCTCTACCCTTGCTACTCGCCCTCTTCGGAGGGTTCGAAGTGACACTAGGTATACGCATGGTTGGGAAACCATGCCTGGCCTACTACTGGGTGATAGCCTGGCGGCGGGTCCGTCTCTTGGCTTATACCCGTTGATTTGGGAT
Molecule B3 yielded an Expression of 1.05E+05.

B4: Porcine reproductive and respiratory syndrome virus 2 (nucleic acid)
DNA: ATGACGTATAGGTGTTGGCTCTATGCCTTGGCATTTGTATTGTCAGGAGCTGTGACCATTGGCACAGCCCAAAACTTGCTGCACAGAAACACCCTTCTGTGATAGCCTCCTTCAGGGGAGCTTAGGGTTTGTCCCTAGCACCTTGCTTCCGGAGTTGCACTGCTTTACGGTCTCTCCACCCCTTTAACC
The molecule B4 displayed an Expression of 1.29E+05.

B5: Phopivirus strain NewEngland (nucleic acid)
DNA: GGGAGTAAACCTCACCACCGTTTGCCGTGGTTTACGGCTACCTATTTTTGGATGTAAATATTAATTCCTGCAGGTTCAGGTCTCTTGAATTATGTCCACGCTAGTGGCACTCTCTTACCCATAAGTGACGCCTTAGCGGAACCTTTCTACACTTGATGTGGTTAGGGGTTACATTATTTCCCTGGGCCTTCTTTGGCCCTTTTTCCCCTGCACTATCATTCTTTCTTCCGGGCTCTCAGCATGCCAATGTTCCGACCGGTGCGCCCGCCGGGGTTAACTCCATGGTTAGCATGGAGCTGTAGGCCCTAAAAGTGCTGACACTGGAACTGGACTATTGAAGCATACACTGTTAACTGAAACATGTAACTCCAATCGATCTTCTACAAGGGGTAGGCTACGGGTGAAACCCCTTAGGTTAATACTCATATTGAGAGATACTTCTGATAGGTTAAGGTTGCTGGATAATGGTGAGTTTAACGACAAAAACCATTCAACAGCTGTGGGCCAACCTCATCAGGTAGATGCTTTTGGAGCCAAGTGCGTAGGGGTGTGTGTGGAAATGCTTCAGTGGAAGGTGCCCTCCCGAAAGGTCGTAGGGGTAATCAGGGGCAGTTAGGTTTCCACAATTACAATTTGAA
In the case of B5, the Expression is given as 1.06E+05.

B6: Pigeon picornavirus B (nucleic acid)
DNA: TTTATTTAGCTGTTAAGTTTTATTTGTGCCGAGACCCCATAGTAGGATCTTGGTGTTCCACATTAAGCTCTCCCGACCACACATCCAAACGATAGGCGGTGTAAGGGCTCCCTGGCTAAGTGTTTACTCATTGCTAGGGAAGTGTTGCGACCCGTTACCAGTAGGAATACAGGAGGTCTTAGTTGCCTAACCAGATAAAGTGGTGCTGAAATATTGCAAGCTCAATGTCTGGCGAACGACGGACTACCGTTGAACTATTGTTAACGCCCGCGTGTGTAGGCAACACACGGGTTAGTAGGTCACTTACATTGACATCCGTGCCGGGAAAGCGGATCTGAGCTATCGATTGCCTGATAGGGTGCCGGCGGGCGCGGTACGTGTGGTATAGTCCGCTGTCTTGGGGTATGGCGTCTACTCGGTTTTGTTGTCGTTTTGGAATGTCCCATGTCGGAGATGTCGTTACCGGTGTTTGCTTTACTTGTGCACGAATAAGAAAACAGAGTTTGGAGTTTTGGAAGTTAATGGATAACATCAAGTTTCCATTGCGTTCCTCGTGCATTTTAGGCCAGAAAATCGACCACAAAATCGAGA
Regarding B6, the Expression was 1.24E+05.

B7: Picornavirales Tottori-HG1 (nucleic acid)
DNA: AGCCATGAACTAGTGTGCGATTCCCACAGTGTTGGTCGAAAGCCCCGCACTGTCTACTCGCATATTTGACTCCAGTCCTTCCGCAGCCAGCGGTTAGGTTCTGGTTAAAGTGCATTATGTGCACGGCGCCACGCAGAACTGCCAGAAATGGTAAGCTGCGCCCAACGCCAACGGTTTGTGTATCCCGTTAGTCACACGTTTACAGCTGTTCGTTAACAGTAGGGTTTTGTCGACCCGGACCCCTTAATGCGCGCGAATTCAACCGCGCCTAGTCGGCAATGGTATCATTTAATCCCATGCACTACGGGAGAAATTTGAGACCAAAGAATTCCTGAGGGCCACTGCTTGCTCTAAGTGCAATGCCTCGGGAGACTTCTGTCAGGAGCCTAGCGGCTTTCAACCGCGACAGCTAACTCCTGCGGGATGTTTGGTGTCCATACTTACTGGCGTCCTCACAACGCTAAGTGGATGTTGTCCACAGGTAGGCAAACACCGAGCCCCACATTCAGGAGACCTGTATGAACGATCCTATCAGCATTAGAGTTGGAATTGGGTGTGCTAACGTCCGCATAAGTGCACCCCGTGGTAACGCTGGGAAACTATCCAGCGCAACGTACTGTCCTCAATGTCTAGGGAAGGACCGCCCTAAGCGTACAACCGGGCCATGTGTCGAGC
On to B7, for which the Expression was found to be 9.54E+04.

B8: Porcine enterovirus 9 (nucleic acid, listed as Enterovirus sp.)
DNA: GAACCTTAGAAGTTTACACAAACAAAGACCAATAGGAGTCCAACACCCAGTTGGATTGCGGTCAAGCACTTCTGTTTCCCCGGACCTAGTAGTGATAGGCTGTACCCACGGCCGAAGATGAACCCGTCCGTTATCCGGCTACCTACTTCGGGAAGCCTAGTAACATTCTGAAGTCTCTGAGGCGTTTCGCTCAGCACGACCCCGGTGTAGATCGGGCTGATGGGTCTCCGCATACCCCACGGGCGACCGTGGCGGAGGCCGCGTTGGCGGCCCGCCTATGGCGAAAGCCATAGGACGCCTCTTAGATGACAGGGTGTGAAGAGCCTACTGAGCTGGGTAGTAGTCCTCCGGCCCCTGAATGCGGCTAATCCTAACCACGGAGCGTCCACCAGCAATCCAGCTGGCAGGGCGTCGTAACGGGCAACTCTGTGGCGGAACCGACTACTTTGGGTGTCCGTGTTTCCTTTTGATCCTATTTTGGCTGCTTATGGTGACAACGATAAGTTGTTATCATAAAGCTCTTGGGTTGGCCACCTGGAAAAAGTTATCAGTGTTTGATATTGTTCGGCTCTCACGCCTACCAATAAGACAAGCCCTATATTTACTTGTTGCATTTTACTCGTCAGAAGAAATCACAGAGTATCATTTGGATTTGTTACTCACATTAAGGACAAG
B8 showed an Expression of 3.20E+07.

B9: Quail picornavirus QPV1 (nucleic acid)
DNA: TTTGCATCAGTTCGCCCCTCCCCTCACCATACCTTTTTCCCCTCTTTAGGACTGATACTTGGTTATGATGAGCAGAGGATTTCGCAAGTTATGCTTCTTGATAAAAAGTAATTCACGAATCATGGGATTATAGCCTGGAAGTGAACACTCATGTGGCAAGTGGGTTAGTAGCTCTCCATGTTCCCATGTGCAGTGGACTGACAACAGTGAGTTCGGGGTTGTGTAGTAAAGGGAAAGTATTACTTACCCGCACCTGCTATACGTGGTGTACGTAGGATACGAGTTAGTAGTGCTTAGCAACTTTAAACTGGTGCTGAAATATTGCAAGGTCACTGAAGTTGTGAACGCGAACGCTCCGCCACTGCCATGTATAGCGTGCAATGCATAAATGGTGCACTACATGATACGAGGGAATGGGAAACCCTCCATGGCCGAATGCAGGGTGACAGCCTGCCGGCGGATGCCTGTTGTTAGTATAATCCGTTGTTTGCCAC
With B9, the Expression is reported as 6.55E+07.

B10: Picornavirus HK21 (nucleic acid)
DNA: AAACGGGAGGATCGGCTTTGGCTTATCCTCTTAATAGTCTACAAAACTGGGCTGACTGGTGGGGGAGCTACTAGATCCGGGAGAGGACTAGTTACCCCGCGTAACTTCCCTTTTTGTCACTCCCTCCACCTACCCCTTCCCTGTCCCTTAGACTCTTAAGTAGGTGTGCAGGCCTGGCCCCCCGGAAATGGGCAAATCGGACGTTTGCGTGTAGGGTCGTTCTGAAAGGTGGGGCCCACTCCACCGTAGTAGGATCTTCCTGTTTCACGTTTAAACCTCTCCGGGCAGGTATCGCTAGACACTAGGCTGTATAGGATGGCACGCACTTAGGTTTCGCACCTTCCTAGTGCGCCAAGATCCCGCTTTTGAGCTCAAGTACATGGTTCTTTGTAAGATGTCTAACCAGAGGAGGTGGTGCTGAAATATTGCAAGCCACTCTGGCGAACGTCCACTGCATTGCCTGGAACAGGCTCTCTAGCGCCCTCCACTGGTAGCGCGGTGGTGGGTTAGTAGGATACCTATATGGACAGGGGATGCGGGAATACCCCTCACTAGCTAGTGACTGGTTGATCGACTGGCGGCGGATCCAGTGATACTTGCATAATCCGCAGACTTGGGAG
Molecule B10 came in with an Expression of 4.09E+05.
